Assay results from paper PMC3232247.

Molecular target: T1, RGSZ2 RH region (RGS box), recombinant, GST-free (murine)
T1 sequence (Q9QZB0 whole entry, looked up): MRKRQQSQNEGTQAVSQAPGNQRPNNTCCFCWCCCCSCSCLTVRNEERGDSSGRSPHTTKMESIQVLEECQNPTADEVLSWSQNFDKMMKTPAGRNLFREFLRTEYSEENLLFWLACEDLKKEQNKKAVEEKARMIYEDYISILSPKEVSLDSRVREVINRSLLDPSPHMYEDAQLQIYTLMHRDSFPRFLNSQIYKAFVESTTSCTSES

Question: “SUMO1 (Small Ubiquitin-like MOdifier 1) (from UniProt P63165 1-97) (natural protein)” was tested. Which k cat of GTP hydrolysis by Gαi, single turnover, with RGSZ2 RH and free SUMO1 (4.0 with RH without SUMO1; 2.2 for Gαi alone) did it give?
Answer: 0.0417 s⁻¹
